According to patent US20230218738A1 (Pfizer, published 2023):
Positions count from the first letter of the chain named.

Experiments:
Assay in all cases: BLI (Octet), F on anti-HIS tip, 20 nM mAb
[1] = target: RSV F protein mutant pXCS780 (RSV A2, UniProt P03420 26-109)
[2] = target: RSV F protein mutant pXCS787 (RSV A2, UniProt P03420 26-109)
[3] = target: T1, RSV F protein mutant pXCS827 (RSV A2, UniProt P03420 26-109)
T1 chain 1: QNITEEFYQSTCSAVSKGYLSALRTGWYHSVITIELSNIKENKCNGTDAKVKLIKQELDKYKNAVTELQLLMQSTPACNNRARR
T1 chain 2: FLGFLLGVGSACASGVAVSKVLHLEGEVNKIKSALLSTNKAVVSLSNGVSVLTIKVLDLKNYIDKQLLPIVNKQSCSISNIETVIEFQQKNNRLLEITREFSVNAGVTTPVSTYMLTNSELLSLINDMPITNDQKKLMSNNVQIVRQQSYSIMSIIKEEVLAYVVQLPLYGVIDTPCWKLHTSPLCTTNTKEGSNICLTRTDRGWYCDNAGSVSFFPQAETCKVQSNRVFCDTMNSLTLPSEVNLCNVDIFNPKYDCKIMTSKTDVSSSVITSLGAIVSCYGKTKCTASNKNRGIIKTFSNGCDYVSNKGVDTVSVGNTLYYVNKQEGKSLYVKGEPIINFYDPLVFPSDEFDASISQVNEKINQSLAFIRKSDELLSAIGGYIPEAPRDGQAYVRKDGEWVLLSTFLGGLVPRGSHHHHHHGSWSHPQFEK

[4] = target: T2, RSV F protein mutant pXCS845 (RSV A2, UniProt P03420 26-109)
T2 chain 1: T1 chain 1
T2 chain 2: T1 chain 2 with I54S, D350S

[5] = target: RSV F protein mutant pXCS847 (RSV A2, UniProt P03420 26-109)
[6] = target: RSV F protein mutant pXCS853 (RSV A2, UniProt P03420 26-109)
[7] = target: RSV F protein mutant pXCS854 (RSV A2, UniProt P03420 26-109)
[8] = target: T3, RSV F protein mutant pXCS858 (RSV A2, UniProt P03420 26-109)
T3 chain 1: T1 chain 1 with S30C, C78T
T3 chain 2: T1 chain 2 with C12I, L52C, V160I, D350S

[9] = target: T4, RSV F protein mutant pXCS880 (RSV A2, UniProt P03420 26-109)
T4 chain 1: T1 chain 1 with S30C, C78T
T4 chain 2: T1 chain 2 with L6C, C12I, L52C, N235C, D350S, E351Q, D353S

[10] = target: RSV F protein mutant pXCS883 (RSV A2, UniProt P03420 26-109)
[11] = target: RSV F protein mutant pXCS889 (RSV A2, UniProt P03420 26-109)

B1: AM22 (antibody, V domains shown)
VH: QVQLVQSGAEVKKPGATVKVSCKISGHTLIKLSIHWVRQAPGKGLEWMGGYEGEVDEIFYAQKFQHRLTVIADTATDTVYMELGRLTSDDTAVYFCGTLGVTVTEAGLGIDDYWGQGTLVTVSS
VL: EIVLTQSPGTLSLSPGERATLSCRASQIVSRNHLAWYQQKPGQAPRLLIFGASSRATGIPVRFSGSGSGTDFTLTINGLAPEDFAVYYCLSSDSSIFTFGPGTKVDFK
- Response (nm shift) [1]: 0.29 nm
- Response (nm shift) [2]: 0.225 nm
- Response (nm shift) [3]: 0.45 nm
- Response (nm shift) [4]: 0.314 nm
- Response (nm shift) [5]: 0.484 nm
- Response (nm shift) [6]: 0.484 nm
- Response (nm shift) [7]: 0.453 nm
- Response (nm shift) [8]: 0.547 nm
- Response (nm shift) [9]: 0.213 nm
- Response (nm shift) [10]: 0.233 nm
- Response (nm shift) [11]: 0.477 nm

B2: MPE8 (antibody, V domains shown)
VH: EVQLVESGGGLVKPGGSLRLSCAASGFTFSSYSMNWVRQAPGKGLEWVSSISASSSYSDYADSAKGRFTISRDNAKTSLFLQMNSLRAEDTAIYFCARARATGYSSITPYFDIWGQGTLVTVSS
VL: QSVVTQTPSVSGAPGQRVTISCTGSSSNIGAGYDVHWYQQLPGTAPKLLIYDNNNRPSGVPDRFSASKSGTSASLAITGLQAEDEADYYCQSYDRNLSGVFGTGTKVTVL
notes: also called MPEG
- Response (nm shift) [1]: 0.608 nm
- Response (nm shift) [2]: 0.621 nm
- Response (nm shift) [3]: 0.88 nm
- Response (nm shift) [4]: 0.699 nm
- Response (nm shift) [5]: 0.871 nm
- Response (nm shift) [6]: 0.905 nm
- Response (nm shift) [7]: 0.886 nm
- Response (nm shift) [8]: 1.06 nm
- Response (nm shift) [9]: 0.684 nm
- Response (nm shift) [10]: 0.704 nm
- Response (nm shift) [11]: 0.889 nm
